Reference: US6080542A, “Plant peptide transport gene” (priority 1997, dated 2000)
Blank lines part the entries; values can stand above or below the molecule they belong to. Where a SMILES comes first, the peptide text is derived from it. Where no end group is shown, it is not given here. [ ]: non-standard residue; d: D form. hCys = N[C@@H](CCS)C(=O)O; Eth = ethionine

Columns and labels:
[1] = tested on: S288C; test: Toxic peptide disk assay, wild type; assay type: cell-based, Saccharomyces cerevisiae; details: disk with 0.38 μmoles, lawn of 5×10^6 cells, 30° C., 1 to 2 days, mean ± standard error
Procedure: (§1) Since ptr mutants are deficient in peptide transport, they are unable to take up toxic peptides. This inability renders such mutants resistant to the toxic effect of the peptides. In order to determine whether the polynucleotides of the present invention could restore toxic peptide sensitivity to ptr2 mutants, the sensitivity of plasmid-transformed cells was determined. Sensitivity to toxic amino acids and peptides was measured as described by Island, M. D. et al. (J. Bacteriol. 169:2132-2136 (1987)). Briefly, a filter disk containing 0.38 μmoles of the toxic compound was placed on a lawn containing 5×10^6 cells and the plate incubated at 30° C. for 1 to 2 days. Resulting halos were measured across their diameter. The toxic dipeptides Leu-Eth, Ala-Eth, Leu-F-Phe and Oxalysine were synthesized by standard solution phase techniques (Naider, F. et al., J. Biol. Chem. 249:9-20 (1974). The results of this experiment are shown in Table 2 (values are the mean of the diameters of the observed zone of inhibition in millimeters±standard error of the mean of at least two independent experiments).

[2] = tested on: PB1X-9B (pJP9); test: Toxic peptide disk assay, mutant with yeast peptide transport gene; assay type: cell-based, Saccharomyces cerevisiae; details: disk with 0.38 μmoles, lawn of 5×10^6 cells, 30° C., 1 to 2 days, mean ± standard error
Procedure: as §1

[3] = tested on: PB1X-9B (pPTF4); test: Toxic peptide disk assay, mutant with plant gene ATPTR2A; assay type: cell-based, Saccharomyces cerevisiae
Procedure: as §1

[4] = tested on: A. thaliana seedlings; test: Root elongation of seedlings exposed to toxic peptides; assay type: in vivo, Arabidopsis thaliana
Procedure: (§2) Thus, A. thaliana seeds and seedlings were exposed to Ethionine, Ala-Eth, Leu-Eth, Leu-fluorophenylalanine or oxalysine containing peptides, and the minimum inhibitory concentrations (MIC) were determined for each of the toxic compounds.
Approximately 15 A. thaliana seeds were placed in a row at one end of 10 cm plate containing 20 ml of Arabidopsis growth media (Kranz and Kirchheim 1987). The seeds were incubated 3-5 days in the light with the plate set in an upright position. When the roots were approximately 1-2 cm long, sterile paper filter disks were placed immediately in front of the root tips on the right and left side of the plate 2 cm from the edge of the plate. A line was drawn across the plate using the top of the disks as a guide marking zero growth. 5 μl of toxic amino acid analog, toxic peptide, or toxic peptide plus competitor was added to one disk while H2 O was place on the other disk. The plates were incubated for an additional 3-5 days. The average length of the roots was measured from the line and the results expressed as a percentage of control root growth.

[5] = tested on: PB1X-9B(pJP2); test: Dipeptide utilization, L-alanyl-L-ethionine sensitivity and dileucine transport of secondary transformants; assay type: cell-based, Saccharomyces cerevisiae
Procedure: Plasmid pJP2 was then reintroduced into PB1X-9B. The resulting secondary yeast transformants were tested for the ability to use a variety of dipeptides as sources of amino acids and for sensitivity to the toxic dipeptide L-alanyl-L-ethionine. Thus, strains were grown in YEPG broth at 30° C. to a titer of 10^8 cells per ml. The cells were harvested by centrifugation, washed twice with sterile water and resuspended at 1.0×10^7 cells per ml. A 5-μl aliquot was applied to solid MM containing dipeptides and amino acids as required. Four types of solid media were routinely used in assessing dipeptide utilization: MM+L-leucyl-L-leucine-L-lysine+L-histidine, MM-L-lysI-L-lysine-L-leucine-L-histidine (SEQ ID NO:12), MM-L-lysl-L-leucine-L-histidine, and MM-L-histydyl-L-leucine-L-lysine. All dipeptides were present at a concentration of 80 μM, while amino acids and nucleotide bases were added as required at standard concentrations (Sherman, F. et al., In: Methods in Yeast Genetics, Cold Spring Harbor Laboratory, Clod Spring Harbor, N.Y. (1986)). The plates were incubated at 30° C. for 48 hours and then scored for growth.

[6] = tested on: A. thaliana seeds; test: Seed germination with toxic peptides (minimum inhibitory concentration); assay type: in vivo, Arabidopsis thaliana; details: A. thaliana seeds
Procedure: as §2
To measure the minimum inhibitory concentration of the toxic peptides, 10 to 15 A. thaliara seeds were place on solid Arabidopsis growth media with decreasing concentrations of toxic peptide. The seeds were incubated for 4 days in the dark and then scored for germination.

[7] = target: Leu-Eth
[8] = target: L-alanyl-L-ethionine
[9] = target: T1, Lys-Leu-Leu-Leu-Eth; test: cell-based or functional assay
T1 peptide: KLLL-Eth

[10] = target: T2, Lys-Leu-Leu-Ala-Eth; test: cell-based or functional assay
T2 peptide: KLLA-Eth

[11] = target: Leu-Eth; remark: listed apart in the source
[12] = target: Lys-Leu-Eth
[13] = target: Lys-Leu-Leu-Eth
[14] = target: Leu-F-Phe
[15] = target: Lys-Ala-Eth
[16] = target: Lys-Leu-Ala-Eth
[17] = target: L-alanyl-L-ethionine; remark: listed apart in the source
[18] = target: T3, Ala-Ala; test: cell-based or functional assay
T3 peptide: AA

[19] = target: T4, Ala-Ala-Ala; test: cell-based or functional assay
T4 peptide: AAA

[20] = target: T5, Met-Met; test: cell-based or functional assay
T5 peptide: MM

Molecule: CCSCC[C@H](NC(=O)[C@H](C)N)C(=O)O [Ala-Eth, L-alanyl-L-ethionine] (H-Ala-[hCys](Et)-OH)
- diameter of zone of inhibition [1]: 33.5 ± 2.5 millimeters
- diameter of zone of inhibition [2]: 42.5 ± 2.5 millimeters
- sensitivity or resistance to toxic compound [3]: restores sensitivity
- diameter of zone of inhibition ([3]; disk with 0.38 μmoles, lawn of 5×10^6 cells, 30° C., 1 to 2 days, mean ± standard error): 35.0 ± 1.0 millimeters
- amount that inhibits root elongation of seedlings [4]: 0.038 µmol
- sensitivity to toxic dipeptide [5]: sensitive
- amount that inhibits germination of seeds [6]: 0.038 µmol

- inhibition of germination of A. thaliana seeds and of root elongation of seedlings [7]: 0.038 µmol
- inhibition of germination of A. thaliana seeds and of root elongation of seedlings [8]: 0.038 µmol
- diameter of the zone of inhibition, disk assay with 0.38 µmoles [9]: 0 mm
- diameter of the zone of inhibition, disk assay with 0.38 µmoles [10]: 0 mm
- diameter of the zone of inhibition, disk assay with 0.38 µmoles [11]: 45 mm
- diameter of the zone of inhibition, disk assay with 0.38 µmoles [12]: 35 mm
- diameter of the zone of inhibition, disk assay with 0.38 µmoles [13]: 0 mm
- diameter of the zone of inhibition, disk assay with 0.38 µmoles [14]: 37 mm
- diameter of the zone of inhibition, disk assay with 0.38 µmoles [15]: 37.5 mm
- diameter of the zone of inhibition, disk assay with 0.38 µmoles [16]: 0 mm
- diameter of the zone of inhibition, disk assay with 0.38 µmoles [17]: 35 mm
- reversal by a competitor peptide of the inhibition of A. thaliana root growth by Ala-Eth or Leu-Eth [18]: 0 % of control root growth
- reversal by a competitor peptide of the inhibition of A. thaliana root growth by Ala-Eth or Leu-Eth [19]: 0 % of control root growth
- reversal by a competitor peptide of the inhibition of A. thaliana root growth by Ala-Eth or Leu-Eth [20]: 40 % of control root growth
B1: ATPTR2Ap protein (other)
chain: MSSIEEQITKSDSDFIISEDQSYLSKEKKADGSATINQADEQSSTDELQKSMSTGVLVNGDLYPSPTEEELATLPSVCGTIPWKAFIIIIVELCERFAYYGLTVPFQNYMQFGPKDATPGALNLGETGADGLSNFFTFWCYVTPVGAALIADQFLGRYNTIVCSAVIYFIGILILTCTAIPSVIDAGKSMGGFVVSLIIIGLGTGGIKSNVSPLMAEQLPKIPPYVKTKKNGSKVIVDPVVTTSRAYMIFYWTINVGSLSVLATTSLESTKGFVYAYLLPLCVFVIPLIILAVSKTAFTSTLLPPVPSLFVLVKCSSLLLKTNLISKKLNHLALLLLERYVKDQWDDLFIDELKRALRACKTFLFYPIYWVCYGQMTNNLISQAGQMQTGNVSNDLFQAFDSIALIIFIPICDNIIYPLLRKYNIPFKPILRITLGFMFATASMIYAAVLQAKIYQRGPCYANFTDTCVSNDISVWIQIPAYVLIAFSEIFASITGLEFAFTKAPPSMKSIITALFLFTNAFGAILSICISSTAVNPKLTWMYTGIAVTAFIAGIMFWVCFHHYDAMEDEQNQLEFKRNDALTKKDVEKEVHDSYSMADESQYNLEKANC
